Results on two molecules are retold here after patent US20100183614A1.

Assay in all cases: cell-based or functional assay
For assay [1], the target named is gp120 of clade A HIV strains.
A further assay has as its target amyloid β peptide Aβ1-40 (UniProt P05067).
Assay [2] addresses Efb (S. aureus virulence factor) (Staphylococcus aureus) (UniProt A6QG59).

Chain of Efb (S. aureus virulence factor) (Staphylococcus aureus) (A6QG59 30-165 limits assumed): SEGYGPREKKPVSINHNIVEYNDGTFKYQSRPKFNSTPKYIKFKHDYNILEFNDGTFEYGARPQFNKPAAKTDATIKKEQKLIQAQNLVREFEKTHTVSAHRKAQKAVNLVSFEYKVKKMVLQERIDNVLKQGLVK

B1: scFv JL427 (scFv)
scFv: QSVLTQPPSVSGAPGQRVTISCSGSSSNFGLNYVYWYQHFPGTAPKLLIYRNDQRPLGVPARFSGSKSGTSASLAISGLRSEDEADYYCQSYDNSLSGWVFGGGTQLTVLGSSGGGGSGGGGSGGSALQVQLQQSGGGLVQPGRSLRLSCAASGFTFSSYGMHWVRQAPGKGLEWVSYIGRSGSHTNYADSVKGRFTISRDNSKNTLYLQINSLRAEDTAVYYCARGLPNYGMDIWGQGTTVTVSSGSASAPTLFPAAAHHHHHHGAAEQKLISEEDLNGAA
B1: the HIV neutralization IC50 in assay [1] came to 0.2 µg/mL.

B2: IgVL2-t 2E6 (protein)
chain: QSALTQPASVSGSPGQSITISCTGTSSDVGGYNYVSWYQQHPGKAPKLMISEVSNRPSGVSNRFSGSKSGNTASLTISGPQTEDEADYYCSSYTSSSTPVVFGGGTQLTVLGSSGGGGSGGGGSGGSALDIQLTQSPSSLPASVGDRVTITCRASQSISSYLNWYQQKPGKAPKLLIYAASSLQSGVPSRFSGSGSGTDFTLTISSLQPEDFATYYCQQSYSTHTFGQGTKLEIKRAAAHHHHHHGAAEQKLISEEDLNGAA
In the assay with amyloid β peptide Aβ1-40, B2 yielded a 125I-Aβ1-40 hydrolyzing activity, specific activity, preparation AEQ (fmol/h/mg protein) of 1160; a 125I-Aβ1-40 hydrolyzing activity, specific activity, preparation MA1 (fmol/h/mg protein) of 380; a 125I-Aβ1-40 hydrolyzing activity, specific activity, preparation MA2 (fmol/h/mg protein) of 368; a 125I-Aβ40 hydrolysis, activity in the absence of a competitor peptide of 2590 cpm/hour. In the assay with amyloid β peptide Aβ1-40, the Km was found to be 80 µM, the kcat came out at 0.005 s⁻¹ and the specificity constant (kcat/Km) was 61.7 M⁻¹ s⁻¹. The % Bt-Efb cleavage in assay [2] is over 20%.

The term Km denotes the concentration of substrate that gives half-maximal velocity. For orientation: kcat means the number of substrate molecules converted per active site and unit of time at saturation. The term kcat/Km denotes the turnover number divided by the Michaelis constant.
